This experiment addresses V. parahaemolyticus YeaZ, fragment 1-213 as in the crystals (Vibrio parahaemolyticus). Nature of the experiment: crystal structure; X-ray, 3.1 Å; asymmetric unit with four subunits (two dimers related by a non-crystallographic two-fold axis); crystals of fragment 1-213; no nucleotide.

Here are results for one substance from article PMC3157347.

“V. parahaemolyticus YeaZ, fragment 1-213 as in the crystals (domain or fragment)” displayed a stoichiometry N of 2.

One may read the stoichiometry N as the number of molecules, sites or subunits per partner or assembly.
